Data on three substances can be found in patent US20080154022A1.

In this test the target is bFGF receptor on BHK-21 (baby hamster kidney derived) cells (hamster). The test can be described thus: displacement of [^125I]-bFGF from BHK-21 cells, radioreceptor assay, IC50 read from the graph.

The term IC50 denotes the point on the concentration scale where inhibition reaches its midpoint. Lower therefore signals inhibition by little substance. Consider “Recombinant human basic fibroblast growth factor (bFGF) (from UniProt P09038 143-288) (ligand)”, for which the IC50 was found to be 0.12 nM. Turning to “Complex of bio-bFGF and the OX26/streptavidin conjugate (from UniProt P09038 143-288; P22629 37-163)”, the 50% inhibitory concentration (IC50) was found to be 0.56 nM. The figure for “Biotinylated bFGF (monobiotinylated recombinant human bFGF) (from UniProt P09038 143-288) (ligand)” is 0.4 nM.
